Legend:
[1] = system: chick dorsal root ganglion neurons, myelin-induced neurite outgrowth inhibition; assay: Neurite outgrowth of embryonic day 13 chick DRG neurons on myelin (Example 29); format: cell-based; settings: 8 μM NgR(310)ecto-Fc; MP 10 μg/nl as printed
Method: In investigating combined treatment with methyprednisolone (MP) and NgR(310)ecto-Fc for spinal cord injury (SCI), we sought to verify that these reagents have independent mechanisms of action. Briefly, myelin was dried overnight in poly-L-lysine-precoated plates (Becton Dickinson, Bedford, Mass., USA) at 80 or 400 ng/well (2.5 and 12.7 ng/mm^2, respectively). Wells were then coated with 10 µg/ml laminin (Calbiochem, La Jolla, Calif., USA) for 1 hour at foom temperature (22-24 C). Embryonic day 13 chick dorsal root ganglion neurons were dissociated and plated for 6-8 hours as previously described (GrandPre et al., 2000; Fournier et al., 2001). Neurons were treated with 8 μM NgR(310)ecto-Fc in the presence or absence of 10 μg/nl MP (Pharmacia, Kalamazoo, Mich., USA) for the entire outgrowth period. Neurons were then fixed and stained with βIII tubulin antibody (Covance, Princeton, N.J., USA) and neurite outgrowth was quantified using an automated cellular imaging and analysis system (Axon Instrument, Union City, Calif.; USA). Neurite outgrowth per cell was normalized to the average of duplicate control wells for each experiment (n=3). […] These in vitro data support the hypothesis that MP and NgR(310)ecto-Fc will enhance SCI recovery in a sequentially effective manner.

[2] = system: rats with dorsal hemisection (CST transection); assay: Functional recovery after spinal cord transection in rats (BBB, stride length; Example 30); format: in vivo, rat
Method: Briefly, female Long Evans rats (7 weels old; Charles River, Wilmington, Mass., USA) were anesthetized using 25 mg/kg midazolam i.p. (Abott Laboratories, Chicago, Ill., USA) and 2-3% fluothane (Baxter, Deerfield, Ill., USA) in O2 and a dorsal laminectomy performed at spinal level T6 and T7. General anesthesia wa maintained at 1.5-2% fluothane in O2 A dorsal hemisection was performed completely interrupting the main dorsomedial and the mino dorsplateral corticospinal tract (CST) components. A microscapel was used to sterotaxically transect the cord at a depth of 1.8 mm from the surface of the cord. Immediately after CST transection, an intrathecal catheter was inserted into the subarachnoid space at T7 and connected to a primed mini-osmotic pump inserted into the subcutaneous space. […] Functional recovery was assessed using the BBB openfield scoring method (Basso et al., J. Neurotrauma 12:1-21 (1995)) the following day and weekly thereafter.
A discriminating point on the BBB score is a score of 14, corresponding to consistent weight supported planter steps and consistent hindlimb-forelimb coordination.

[3] = system: rats with CST transection; assay: BDA-labeled axon counts caudal to spinal cord transection in rats (Example 31); format: in vivo, rat; settings: 15 mm caudal to the injury site
Method: Treatment with NgR(310)ecto-Fc or combined treatment with MP and NgR(310)ecto-Fc enhanced axonal plasticity/regeneration after spinal cord transection. Briefly, for histological tracing of the CSTs, 2 weeks after CST transection animals were re-anesthetized and an incision made in the scalp. The area around the skin incision was injected with a local anesthetic, the left sensorimotor cortex exposed via a craniotomy and 7 μL 10% biotin dextran amine (BDA; 10,000 MW; Molecular Probes, Eugene, Oreg., USA) in PBS injected using a nanoliter injector and micro4 controller at 12 points 0-3.5 mm posterior to Bregma and […] lateral to the midline at a depth of 1 mm below the surface of the cortex. In some instances, the CST was labeled bilaterally using the same procedure.
At 28 days after CST transection, the rats were anesthetized with inactin (100-110 mg/kg i.p.) and transcardially perfused with heparinized saline (100 ml, 10 iu heparin) followed by 4% paraformaldehyde (150 ml). […]
Frozen sections (50 μm) were serially cut and stained with strepavidin-conjugated AlexaFluor-594 (1:200; Molecular Probes) to visualize labeled CST axons. […] Every eighth section, i.e., sections 400 μm apart, was counted for each animal at each level of the cord and the values were expressed as mean number of axons per section.

B1: NgR(310)ecto-Fc: ectodomain of the rat NgR1 (27-310) fused to a rat IgG (protein)
chain: PCPGACVCYNEPKVTTSRPQQGLQAVPAGIPASSQRIFLHGNRISYVPAASFQSCRNLTILWLHSNALAGIDAAAFTGLTLLEQLDLSDNAQLRVVDPTTFRGLGHLHTLHLDRCGLQELGPGLFRGLAALQYLYLQDNNLQALPDNTFRDLGNLTHLFLHGNRIPSVPEHAFRGLHSLDRLLLHQNHVARVHPHAFRDLGRLMTLYLFANNLSMLPAEVLVPLRSLQYLRLNDNPWVCDCRARPLWAWLQKFRGSSSGVPSNLPQRLAGRDLKRLATSDLEGCA
modifications: left off: a dimerising Fc or GST
notes: ectodomain of the rat NgR1 (27-310) fused to a rat IgG
- effect on neurite outgrowth on a myelin substrate [1]: reverse the inhibition
- BBB scores normalized to day 2 ([2]; 2, 3 and 4 weeks after SCI): significant improvement
- mean stride length vs controls ([2]; 4 weeks after SCI): significantly improved
- Mean BBB score ([2]; after 4 weeks): 14.8±0.24
- frequency of rats with BBB score of 14 or greater (consistent plantar stepping and coordinated movement) ([2]; by 4 weeks): 100%
- number of BDA-labeled axons [3]: significantly greater numbers

From US9228015B2, “Nogo receptor antagonists and methods of increasing neurite outgrowth” (Biogen Idec MA Inc., priority 2006, dated 2016)
